From US20230176070A1 (published 2023)
Changes are numbered by the printed parent chain.

B1: G7 (VHH)
VHH: QVQLVESGGGLVQPGDSLRLSCAVSGQYVNMAAMGWFRQAPGKEREFVAGISWSDDTDIADSVKGRFTISRDHGKNTVDLQMNSLKPEDTGVYLCAGRFRRLAKDFGEYDYWGQGTQVTVSS
B2: G83 (VHH)
VHH: QVQLVESGGGLVQAGGSLRLSCAASRRTFSIYNMGWFRQAPGKEREFVATITRYGDRTYTADSVKGRFTISSDQAKNTVYLQMNSLNPHDTAVYYCAADSAYSGPDFKHYDYWGQGTQVTVSS
B3: G13 (VHH)
VHH: DVQLVESGGGVVQAGGSLRLSCAASGRTFSDYAMGWFRQAPGKEREFVAGVSWSGVDTYYADSVKGRFTISRDNAKNTLYVQMNSLKPEDTAVYYCAAQRYYHGHAKNMRYDYWGQGTQVTVSS
notes: also called G13(C3)
B4: G9 (VHH)
VHH: DVQLVESGGGLVQPGGSLRLSCAASGLTLDNYDMAWFRQAPGKEREFVTAINYVGGRTYADSVRGRFTISRDDTKNTVYLQMNSLKPEDTAVYYCAAGLQYGITSLRTRNYNYWGQGTQVTVSS
B5: G48 (VHH)
VHH: QVQLVESGGGLVQAGGSLRLSCAASGRTFSTLSMGWFRQAPGQGREFVGGINYDGSSVEYADSVKGRFTISRDNAKNMMYLQMNSLKPEDTAAYYCASSRGYNTGTNPLGYDVWGQGTQVTVSS
B6: G82 (VHH)
VHH: HVQLVESGGGLVQAGGSLRLSCAASGKIFSLSTMGWYRQAPGKQRELVAALTSGGSTNYADSVKGRFTISRDNAKYTTYLQMNSLKPEDTAVYYCNVRYYSGYDGYESNSWGQGTQVTVSS
B7: G22 (VHH)
VHH: QVQLVESGGGSVQAGGSLRLSCAASGRTFSSYSMAWFRQAPGKEREFVAVMNCRYGDTDYPDSVKGRFTMSRDNAKNTLYLQMNSLKPEDTAVYYCAAKLIAYCGSGYYYRRNDYGYWGQGTQVTVSS
B8: G17 (VHH)
VHH: EVQLVESGGGLVQAGGSLRLSCAASGVTISYWVMGWFRQAPGKEREFVARISWGGERTYYADSVKGRFAISRDNAKNTVYLQMNSLNAEDTAVYYCAADRTGWGHSNSRSEYDYWGQGTQVTVSS
B9: G34 (VHH)
VHH: QVQLVESGGGLVQAGDSLRLSCAASGRTFSRYAMAWFRQAPGKEREFVAGISWTGRFTYYADSVKGRFTISRDDAKNTVYLQMNNLKPEDTGLYFCKVGDPYGVGLREYEWWGPGTQVTVSS
B10: G2 (VHH)
VHH: EVQLVESGGDLVQAGGSLRLSCSASGNIFKINDMGWYRQAPGKQRELVARISSSGNTNYADSVKGRFTISRDNGKNTVYLQMNRVKPEDTAVYYCNADVQVSRNYEYEYWGQGTQVTVSS
B11: G95 (VHH)
VHH: HVQLVESGGGLVQAGGSLRLSCAASGRTFSSYAMAWFRQAVGKEREFVAAVSRSGTNLYYADSVKGRFTISRDTAKNTMYLQMNSLKPEDTALYYCAAGEALRWGIGQQPRSEFFDYWGQGTQVTVSS
notes: also called G95(C2)
B12: G47 (VHH)
VHH: QVQLVESGGGLVQAGGSLRLSCAASERIFSNYAMGWFRQAPGKEREFVASIRGSGSQTSYADSVKGRFTISRDGAKDTVDLQMNSLKPEDTAVYYCSAKKYCGSTYNRAEGYDYWGQGTQVTVSS
B13: G38 (VHH)
VHH: EVQLVESGGGLVQAGGSLRLSCVASGHTDCISGMGWYRQAPGKERELVAVLIGGGNTYYGDSVKGRFTISKDKAKNTLYLQMKTLKPEDMAVYYCTADDHGSECPNKEMSSTATYWGQGTQVTVSS
B14: G46 (VHH)
VHH: DVQLVESGGGLVQAGGSLRLSCAASGRTFSRYHMGWFRQAPGKERDVVAAISWSGDSTYYADSVKGRFTISKDNAKNTVYLQMDNLKPEDTAVYYCNVRGGVLRPYDYWGQGTQVTVSS
B15: G6 (VHH)
VHH: QVQLVESGGGLVQAGGSLRLSCAASGRTISSYAMGWFRQAPGKERELVARITSSAGSTYYADSVKGRFTISRDNAKNTMYLQMNSLKPEDTAVYYCAVEIVRAQYDYWGQGTQVTVSS
B16: G87 (VHH)
VHH: B7 VHH with Q1E, S11L, G16D, S33N, M34L, A35G, Q82E, S85N, L100V, I101L
B17: G76 (VHH)
VHH: QVQLVESGGGLVQPGGSLRLSCVVSGFPFSEYAMSWVRQTPEKGREWVSGIYTDGSETLYENSVKGRFTISRDNTKNTLYLQMNNLKPEDTARYYCKLGDPYGVGLRDYEYLGHGTQVTVSS
B18: G32 (VHH)
VHH: QVQLVESGGGLVRAGDSLRLSCVVSGRPISSYAMAWFRQAPGKDREVVAGISANGDRTHYADSIKGRFTVSRDNAKNSMTLQMNKLKPEDTAVYYCAADSLTEGGYGLTGDFDYWGQGTQVTVSS
B19: G5 (VHH)
VHH: EVQLVESGGGVVQPGGSLTLSCAASGFAFRNYAMSWVRQAPGKGPEWVSQINGRGGYTSYADSVKGRFTISRDNTKNTLYLQMNNLKPDDTAVYYCAKDPTQLRWIPVPNYILGSTKGQGTQVTVSS
B20: G72 (VHH)
VHH: QVQLVESGGGLVQPGGSLRLSCATSGSTFSINGIGWYRQVPGIEREFVAGVSTDGKANYADSVAGRFTISINDGKNTAYLQMNSLKPEDTAVYYCNVDSTKGYYWGQGTQVTVSS
B21: G36 (VHH)
VHH: QMGRNSAQVQLVESGGSLRLSCAASGFALSNSYMKWVRQAPGKGPEWVSTIYADGSTYYTDSVKGRFITSRDNSKNTMYLQMSDLKPEDTAVYYCANPSAKGQGTQVTVSS
B22: G29 (VHH)
VHH: QVQLVESGGGLVQAGDSLLLSCGTSGRTFSSNTMGWFRQAPGKGREFVATITASGRGTNYGDSVRGRFTISRDNDKNTVYLQMNNLKPDDTGVYTCAASDSPYGSRWIEAYGYWGQGTQVTVSS
B23: G33 (VHH)
VHH: QMGRNSAEVQLVESGGSLRLSCSVSGGPFTSNGMGWYRQAPGKEREWVAAITNSGSANYADSVKGRFTVSMVNANNTMYLQMNNLKPDDTAVYYCNVAGWPHGYWGQGTQVTVSS
B24: G85 (VHH)
VHH: HVQLVESGGGLVQPGGSLRLSCAASGFTFSTYAMGWVRQAPGKGPEWVATIYSKGDTTHYANSAKGRFTISRDNARNTLYLQMNSLKPEDTAVYYCAKGISDSYLRVESNYRGQGTQVTVSS
B25: G81 (VHH)
VHH: EVQLVESGGELVQAGGSLRLSCAASGRTDSVTRMAWFRQAPGKEREFVAAITWSSGYTYYPDSVKGRFTISRDNAKNTMYLQMNSLKAEDTAVYICAAAVGVISEYNSWGQGTQVTVSS
B26: H15 (VHH)
VHH: QVQLVESGGGLVQAGDSLRLSCAASERTSNYAMGWFRQAPGKEREFVADINHTGGRRKYGDSVKGRFTISRDNAENMVYLQMNNLQVEDTAVYYCATGLRYDVSGYAPDYRYWGRGTQVTVSS
B27: H24 (VHH)
VHH: QVQLVESGGGLVQAGGSLRLSCVSSGRTYRWNAMGWFRQAPGKEREFVAAIDWDGRNTDYADSVKGRFTISRDNAKNTVYLQMNSLKVEDTAIYYCAAREWGSGGYSSIASYAYWGQGTQVTVSS
B28: H1 (VHH)
VHH: QVQLVESGGGLVQPGGSLRLSCVASGIMFDIYTMRWYRQAPGKQRELVAAITGAGRANYNDDSVKGRFTISRDNAKNTVYLQMNRMKPEDTALYECNTEILGGGPNYWGRGTQVTVSE

What follows are binders tested against T1, glutathione S-transferase (UniProt P08515 1-218 = GST) (assay: SPR, GST immobilised;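 also: nanobody analytes injected as dilution series over three orders of magnitude across antigen on a CM5 chip, kinetics fitted by 1:1 Langmuir model, optionally with mass transfer, duplicate runs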).
T1 construct: Expressed in E. coli, purified on GSH resin; also called GST
T1 sequence (P08515 whole entry): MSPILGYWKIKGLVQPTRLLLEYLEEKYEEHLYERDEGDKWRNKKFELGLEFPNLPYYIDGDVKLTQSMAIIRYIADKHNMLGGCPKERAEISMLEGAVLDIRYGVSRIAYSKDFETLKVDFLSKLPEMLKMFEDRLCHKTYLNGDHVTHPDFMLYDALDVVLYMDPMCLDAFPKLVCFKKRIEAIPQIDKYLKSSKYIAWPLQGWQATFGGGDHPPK
Experimental: Nb affinity measurement by SPR. Surface plasmon resonance (SPR, Biacore 3000 system, GE Healthcare) was used to measure Nb affinities. Antigen proteins immobilized on the activated CM5 sensor-chip by the following steps. Protein analytes were diluted to 10-30 μg/ml in 10 mM sodium acetate, pH 4.5, and were injected into the SPR system at 5 μl/min for 420 s. The surface of the sensor was then blocked by 1 M ethanolamine-HCl (pH 8.5). For each Nb analyte, a series of dilution (spanning three orders of magnitude) was injected in HBS-EP+ running buffer (GE-Healthcare) containing 2 mM DTT, at a flow rate of 20-30 μl/min for 120-180 s, followed by a dissociation time of 5-20 mins based on dissociation rate. Between each injection, the sensor chip surface was regenerated with the low pH buffer containing 10 mM glycine-HCl (pH 1.5-2.5), or high pH buffer of 20-40 mM NaOH (pH 12-13). The regeneration was performed with a flow rate of 40-50 μl/min for 30 s. The measurements were duplicated and only highly reproducible data was used for analysis. Binding sensorgrams for each Nb were processed and analyzed using BIAevaluation by fitting with 1:1 Langmuir model or 1:1 Langmuir model with mass transfer.

Row | Binder | Kd | koff | kon
1 | B1 | 268 nM | 0.000809 s⁻¹ | 3020 M⁻¹ s⁻¹
2 | B2 | 0.761 nM | 0.000751 s⁻¹ | 987000 M⁻¹ s⁻¹
3 | B3 | 0.36 nM | 0.00017 s⁻¹ | 474000 M⁻¹ s⁻¹
4 | B4 | 0.177 nM | 0.000353 s⁻¹ | 2e+06 M⁻¹ s⁻¹
5 | B5 | 126 nM | 0.000753 s⁻¹ | 5930 M⁻¹ s⁻¹
6 | B6 | 0.504 nM | 0.000561 s⁻¹ | 1.11e+06 M⁻¹ s⁻¹
7 | B7 | 40.5 nM | 0.00125 s⁻¹ | 30900 M⁻¹ s⁻¹
8 | B8 | 0.0217 nM | 2.92e-05 s⁻¹ | 1.34e+06 M⁻¹ s⁻¹
9 | B9 | 17.6 nM | 0.000462 s⁻¹ | 26300 M⁻¹ s⁻¹
10 | B10 | 2000 nM | 0.00204 s⁻¹ | 
11 | B11 | 77 nM | 0.00107 s⁻¹ | 13900 M⁻¹ s⁻¹
12 | B12 | 32.4 nM | 0.0127 s⁻¹ | 391000 M⁻¹ s⁻¹

The binders below were run against T1, glutathione S-transferase (assay: indirect ELISA, GST coated;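 also: nanobody dilution series starting at 10 µM binding plate-bound antigen, HRP anti-His or anti-T7 tag detection, TMB absorbance at 450 nm, logIC50 from four-parameter logistic fit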).
Experimental: (§1) Indirect ELISA was carried out to evaluate the camelid immune response of an antigen and to quantify the relative affinities of antigen-specific Nbs. An antigen was coated onto a 96-well ELISA plate (R&D system) at an amount of approximately 1-10 ng per well in a coating buffer (15 mM sodium carbonate, 35 mM sodium bicarbonate, pH 9.6) overnight at 4° C. The well surface was then blocked with a blocking buffer (DPBS, 0.05% Tween 20, 5% milk) at room temperature for 2 hours. To test an immune response, the immunized serum was serially 5-fold diluted in the blocking buffer. The diluted sera were incubated with the antigen coated wells at room temperature for 2 hours. HRP-conjugated secondary antibodies against llama Fc (Bethyl) were diluted 1:10,000 in the blocking buffer and incubated with each well for 1 hour at room temperature. […] Nbs of both specific binders for test and scramble negative controls were serially 10-fold diluted from 10 μM to 1 μM in the blocking buffer. HRP-conjugated secondary antibodies against His-tag (Genscript) or T7-tag (Thermo) were diluted 1:5,000 or 1:10,000 in the blocking buffer and incubated for 1 hour at room temperature. Three washes with 1x PBST (DPBS, 0.05% Tween 20) were carried out to remove nonspecific absorbance between incubations. After the final wash, the samples were further incubated under dark with freshly prepared w3,3′,5,5′-Tetramethylbenzidine (TMB) substrate for 10 mins at room temperature to develop the signals. After the STOP solution (R&D system), the plates were read at multiple wavelengths (450 nm and 550 nm) on a plate reader (Multiskan GO, Thermo Fisher). A false positive Nb binder was defined if any of the following two criteria was met: i) the ELISA signal can only be detected at a concentration of 10 μM and was under detected at 1 μM concentration. ii) At 1 μM concentration, a pronounced signal decrease (by more than 10-fold) was detected compared to the signal at 10 μM, while there were no signals can be detected at lower concentrations. The raw data was processed by Prism 7 (GraphPad) to fit into a 4PL curve and to calculate logIC50.

Row | Binder | ELISA affinity (LogIC50 (oD450nm)) | binding result
13 | B1 | 1.89 | 
14 | B13 |  | no binding (tested: Nb titrated from 10 µM)
15 | B2 | 8.72 | 
16 | B3 | 6.74 | 
17 | B4 | 8.05 | 
18 | B14 |  | no binding (tested: Nb titrated from 10 µM)
19 | B5 | 1.6 | 
20 | B6 | 7.22 | 
21 | B15 |  | no binding (tested: Nb titrated from 10 µM)
22 | B7 | 2.07 | 
23 | B16 |  | no binding (tested: Nb titrated from 10 µM)
24 | B8 | 9.81 | 
25 | B17 |  | no binding (tested: Nb titrated from 10 µM)
26 | B18 |  | no binding (tested: Nb titrated from 10 µM)
27 | B19 |  | no binding (tested: Nb titrated from 10 µM)
28 | B20 |  | no binding (tested: Nb titrated from 10 µM)
29 | B9 | 5.32 | 
30 | B21 |  | no binding (tested: Nb titrated from 10 µM)
31 | B10 | 2.67 | 
32 | B11 | 3.76 | 
33 | B22 |  | no binding (tested: Nb titrated from 10 µM)
34 | B23 |  | no binding (tested: Nb titrated from 10 µM)
35 | B24 |  | no binding (tested: Nb titrated from 10 µM)
36 | B12 | 3.86 | 
37 | B25 |  | no binding (tested: Nb titrated from 10 µM)

The binders below were run against T2, human serum albumin (human, UniProt P02768 25-609) (assay: indirect ELISA, HSA coated).
T2 construct: In the mutant screen wild type HSA came from medium of transfected HeLa cells; also called HSA; wild type HSA
T2 sequence (P02768 25-609 limits assumed): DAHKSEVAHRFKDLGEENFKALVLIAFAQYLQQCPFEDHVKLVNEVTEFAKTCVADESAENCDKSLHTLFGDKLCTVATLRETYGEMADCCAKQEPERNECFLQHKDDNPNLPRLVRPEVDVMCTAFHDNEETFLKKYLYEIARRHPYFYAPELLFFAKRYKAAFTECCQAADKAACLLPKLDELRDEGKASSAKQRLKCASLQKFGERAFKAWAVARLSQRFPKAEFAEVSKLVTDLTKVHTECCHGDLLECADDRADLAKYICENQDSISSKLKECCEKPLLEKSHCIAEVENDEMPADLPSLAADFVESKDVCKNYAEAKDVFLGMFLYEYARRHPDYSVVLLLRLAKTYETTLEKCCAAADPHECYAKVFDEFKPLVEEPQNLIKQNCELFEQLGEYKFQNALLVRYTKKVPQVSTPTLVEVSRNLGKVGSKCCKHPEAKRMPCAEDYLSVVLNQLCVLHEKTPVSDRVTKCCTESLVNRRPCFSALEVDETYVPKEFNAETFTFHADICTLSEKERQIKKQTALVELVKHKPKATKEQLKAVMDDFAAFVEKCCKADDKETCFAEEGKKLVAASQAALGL
Experimental: as §1

Row | Binder | binding result | ELISA affinity (LogIC50 (oD450nm))
38 | B26 | no binding (tested: Nb titrated from 10 µM) | 
39 | B27 | no binding (tested: Nb titrated from 10 µM) | 
40 | B28 |  | 4.92
